The values that follow come from publication PMC5228624.

For the series, the target named is T1, arginine vasopressin (AVP) (UniProt P01185 20-28).
T1 chain: CYFQNCPRG
As to the kind of experiment: bead capture, thermal elution, MALDI-TOF MS.

ACCTGGGGGAGTATTGCGGAGGAAGGTAAAAAAA (ssDNA) [ATP-specific aptamer (control)]: the binding result is given as “no binding”.
